Measured values reported in PMC7810988, “Inositol pyrophosphates promote the interaction of SPX domains with the coiled-coil motif of PHR transcription factors to regulate plant phosphate homeostasis”.

Target: AtPHR1 MYB-CC (Arabidopsis thaliana, UniProt Q94CL7 222-358)
Assay: GCI; 4 C, 300 mM NaCl; GCI at 4 C: AtPHR1 in 20 mM HEPES pH 7.5, 300 mM NaCl; OsPHR2 in 20 mM HEPES pH 7.9, 200 mM NaCl. EMSA: LI-COR Odyssey kit buffer without optional components, 50 nM oligo, 30 min at room temperature, 5% TBE gel in 0.5x TBE
Conditions: protein: recombinant; tags: His6 N-terminal, TEV-cleaved (untagged); chain copies: 2; label: 5'-biotin on strand 1; blunt

AtPHR1 MYB-CC, sequence (Q94CL7 222-358): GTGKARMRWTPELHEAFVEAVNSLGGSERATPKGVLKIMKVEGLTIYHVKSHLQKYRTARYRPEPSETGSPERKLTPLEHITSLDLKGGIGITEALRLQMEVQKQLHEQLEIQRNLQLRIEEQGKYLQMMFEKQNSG

B1: pAtSPX1 biotin (dsDNA)
DNA 1: CAGAGAAAAAAGGATATTCTAATTAGAAACCTTAAGAATATTCTTTTTAATCCC
DNA 2: GGGATTAAAAAGAATATTCTTAAGGTTTCTAATTAGAATATCCTTTTTTCTCTG
- Kd: ~200 nM
